The chains are these.
B1: Myc-Mal-TIR wild type (TIR domain of human MyD88 adaptor-like protein, residues 79-221, double-tagged with His6 and Myc) [human] / GST-Mal-TIR (TIR domain of human Mal, residues 79-221, GST fusion) [human] (parent)
chain 1: SSRWSKDYDVCVCHSEEDLVAAQDLVSYLEGSTASLRCFLQLRDATPGGAIVSELCQALSSSHCRVLLITPGFLQDPWCKYQMLQALTEAPGAEGCTIPLLSGLSRAAYPPELRFMYYVDGRGPDGGFRQVKEAVMRYLQTLS
chain 2: B1 chain 1

The experiment covers variants of B1. The experiment is described as follows: GST pull-down, quantified Western blot. The settings on record: with GST-Mal-TIR (TIR domain of human Mal, residues 79-221, GST fusion) [human]; n = 3 separate experiments; parent: 1; read off a plot.
For the variant chain 1 Y81A, the ratio to parent turned out to be 0.41. For chain 1 D9A, the ratio to parent came to 1.2. The figure for chain 1 W78A is 0.6; for chain 1 R114A it is 0.91.
